# Results taken from the supplement of paper PMC10567573.
# ± gives the standard deviation.
# Assay: protein stability index of a GFP-peptide fusion (GPS, HEK-293T) (PSI 1-6); higher = more stable
# Settings: c terminus: a fixed tail appended
# 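Also: 24-mer peptide tiles fused after GFP, lentivirally expressed, FACS-sorted into six equal bins by GFP/DsRed ratio, decoded by Illumina sequencing, PSI is the read-weighted mean bin number.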
Sequence,protein stability index (treatment: DMSO),"protein stability index (treatment: MLN4924 1 uM, 8 h)"
IVLAACSDYFCAMFTSELSEKGKP [KLHL12],2.76 ± 0.42,3.05 ± 0.64
PDPLNICVFILLLVFIVVKCFTSE [RTP4],2.97 ± 1.2,2.72 ± 0.81
VQLIDDFKISGMNGIHVCMVFEVL [SRPK2],2.73 ± 0.62,2.71 ± 0.32
HGAHKAEKKLFECLTCGKSFRQGM [ZNF263],2.67 ± 0.27,2.78 ± 0.25
AVPAAATRTTSFKGTSPSSKYVKL [KCTD10],3.87 ± 0.2,3.99 ± 0.28
LEDIYVMPEYRGQGIGSKIIKKVA [SAT2],3.45 ± 0.37,3.79 ± 0.27
VTLKYEIKKLIYVHLVIWLLLVAK [JAGN1],2.33 ± 0.52,2.27 ± 0.3
YQYFVCPVEYRSDVNSFVTECEPS [CDS1],2.35 ± 0.26,2.36 ± 0.37
RLVDAVLGAEIRNGMAIIRPPGHH [HDAC6],1.96 ± 0.17,2.02 ± 0.35
YKGLFEVNPWKREVKLLLSSETPI [APMAP],2.71 ± 0.3,2.14 ± 0.18
PKPADFRNPGPGRHRLITQVYLSH [INTS4],2.59 ± 0.17,2.57 ± 0.24
RRVPPRFSIPPTNHEIMPGGSVNI [PTPRD],3.38 ± 0.22,3.39 ± 0.22
EPNTFSPANVDASVMFRKWRDSKG [UBE2R2],4.16 ± 0.46,4.4 ± 0.3
YVDIQGLTASTMEILLDFVYTETV [KLHL12],3.564 ± 0.008,3.1 ± 1.2
YKVRHVHWKTWLAIKCSPSLHVDD [RIPK4],2.16 ± 0.34,1.98 ± 0.44
AAKFPSGSQRARVVNTDHGSPEQL [SDE2],4.56 ± 0.44,4.81 ± 0.17
VFEKAGVSISVVHGNLSEEAAKQM [CPOX],3.72 ± 0.15,3.65 ± 0.4
STPLSPAYISLVEEEDQHMKLSLG [KLHL13],4.27 ± 0.16,4.28 ± 0.19
LEASVQDDAGTSGGPSSPPSDPPA [C2CD2L],5.53 ± 0.31,5.66 ± 0.12
SEMECQNQEYKMLLDIKTRLEQEI [KRT13],3.72 ± 0.26,3.82 ± 0.32
RLGELFNPYYDPLQWKSSHFERRD [CHGB],2.45 ± 0.28,2.64 ± 0.24
QKAPMTTVRGLHCMCTVGERLYVI [KLHL13],3.21 ± 0.61,2.75 ± 0.52
LKQLLTETDVWFSKQRKDFEGMAF [GMCL1],2.7 ± 0.48,2.52 ± 0.19

Sequence,protein stability index (treatment: DMSO),"protein stability index (treatment: MLN4924 1 uM, 8 h)"
VRDGFSATFEKILESELLRGTQYS [PSD2],2.29 ± 0.35,2.31 ± 0.12
ATAASSSASSPASVGDPCGGAICG [SLC25A25],4.9 ± 0.34,4.85 ± 0.11
NKKHGEAEKKKPKTQIVCKHFLEA [ZC3H15],4.09 ± 0.32,4.14 ± 0.31
CGDELPWTLQRRLTRLRTASGHEP [PLEKHN1],2.68 ± 0.12,2.7 ± 0.34
LSHAGQKATAAFSNVGTAISKKFG [TPD52L1],3.73 ± 0.23,3.66 ± 0.21
KTKVPSNDNSSDLLYDDLYDDDID [UBE2R2],5.28 ± 0.43,5.38 ± 0.36
CLIRSLLRREPSERLTAPEILLHP [TRIB1],2.48 ± 0.21,2.2 ± 0.21
TAKDFIVGKSLTILGRTFFIYDCD [EFHC1],2.93 ± 0.49,2.28 ± 0.34
IDEIISLESSYNDEMLSYLPGGTT [TFE3],3.96 ± 0.16,3.88 ± 0.32
FNNGAHMSLLPDKKTVHYYAELGQ [PLK2],2.92 ± 0.34,2.66 ± 0.25
VARCEVMAAMFNGNYMEAKSVLIP [RHOBTB3],2.16 ± 0.29,2.24 ± 0.17
GPLGDQLHAQLRDLTSSSSDELSW [ELF3],4.04 ± 0.047,4.18 ± 0.29
SHGANVNHTTVTNSTPLRAACFDG [FEM1B],4.02 ± 0.14,4.25 ± 0.086
PGKLFIGGLNRETNEKMLKAVFGK [RBMY1A1],2.69 ± 0.12,2.86 ± 0.14
QDDHDHKVQELMSTHELEKKELEE [MTUS2],5.59 ± 0.29,5.59 ± 0.33
TSFPGRGSIPEFFHIMKRKFTNKE [AASDHPPT],3.179 ± 0.024,3.21 ± 0.72
VTDCKHTEDVGVVCSDKRIPGFKF [LOXL2],3.61 ± 0.35,3.77 ± 0.16
LGFGPTYVVLAYTLPPASRFIIIF [SOAT1],3.09 ± 0.14,3.03 ± 0.77
SWACAFTNALTHTVAMSTLNFCGP [OR3A1],3.47 ± 0.13,3.15 ± 0.049
PPGGSGSEPYKLLPGAVATIVKPL [HNF4A],3.59 ± 0.11,3.58 ± 0.18
STLLGEMDLLTQSLGVDTLPPPDP [APBB1IP],3.79 ± 0.42,4.03 ± 0.41
SSSYSVSSPRSVDSYSSTQHVPEE [ATF6],5.16 ± 0.14,4.99 ± 0.15
